Data reported in paper PMC6092121, “Structure of mouse protocadherin 15 of the stereocilia tip link in complex with LHFPL5” (eLife, 2018).

B1: LHFPL5, purified in complex with PCDH15 for cryo-EM (Strep-mCerulean removed) (natural protein, mouse (Mus musculus), UniProt Q4KL25 2-219, looked up)
chain: VKLLPAQEAAKIYHTNYVRNSRAVGVMWGTLTICFSVLVMALFIQPYWIGDSVSTPQAGYFGLFSYCVGNVLSSELICKGGPLDFSSIPSRAFKTAMFFVALAMFLIIGSIICFSLFFVCNTATVYKICAWMQLAAATGLMIGCLVYPDGWDSSEVRRMCGEQTGKYTLGHCTIRWAFMLAILSIGDALILSFLAFVLGYRQDKLLPDDYKADGNEEV
notes: called full length LHFPL5 in the text; also called TMHS; not shown: Strep, N-terminal, cleaved; mCerulean, N-terminal, cleaved

Assays:
[1] = target: the molecule itself; experiment: cryo-EM structure; PCDH15_(1EC)-LHFPL5 complex co-expressed and co-purified in digitonin; C2, ~4.5 Å
[2] = target: the molecule itself; experiment: AUC; sedimentation velocity, global direct boundary modelling (Lamm equation, kinetic homo-dimerization model) of samples at 2.3, 7.0 and 11.8 µM; dimer to monomers
[3] = target: the molecule itself; experiment: AUC; sedimentation velocity, 20°C, 50,000 rpm, absorbance 280 nm, 20 mM Tris pH 8.0, 150 mM NaCl; loading concentrations 0.1-57.8 µM; sw isotherm fitted with a monomer-dimer model; dimer to monomers
[4] = target: B1; experiment: cryo-EM structure; PCDH15_(1EC)-LHFPL5 complex co-expressed and co-purified in digitonin; C2, ~4.5 Å; conditions: both partners purified
[5] = target: B1; experiment: cryo-EM structure; PCDH15_(4EC)-LHFPL5 complex co-expressed and co-purified in digitonin with 1 mM CaCl2; Volta phase plate; straight conformation, C2, ~11.3 Å; domains fitted as rigid bodies; conditions: both partners purified
[6] = target: the molecule itself; experiment: as above

**Q.** With B1 as the binder, how does the “stoichiometry N” value [1] read?
**A.** 2

B2: PCDH15 EC11-ELAUC (domain or fragment, mouse (Mus musculus), UniProt Q99PJ1 27-30, looked up)
chain: QYDDHPPVFQKKFYIGGVSEDARMFASVLRVKATDRDTGNYSAMAYRLIIPPIKEGKEGFVVETYTGLIKTAMLFHNMRRSYFKFQVIATDDYGKGLSGKADVLVSVVNQLDMQVIVSNVPPTLVEKKIEDLTEILDRYVQEQIPGAKVVVESIGARRHGDAYSLEDYSKCDLTVYAIDPQTNRAIDRNELFKFLDGKLLDINKDFQPYYGEGGRILEIRTPEAVTSIKKRGESLGYTEG
modifications: treated with PNGase
notes: signal peptide in the construct; also called protocadherin 15; source: HEK293S GnTI- cells, BacMam, secreted, purified (TALON, PNGase treatment, SEC; no thrombin digestion); not shown: 8xHis, C-terminal, kept
**Q.** For B2, which Kd [2] is on record?
**A.** 6.64 µM

**Q.** What about the koff [2] of the same binder?
**A.** 0.00035 s⁻¹

**Q.** What about the Kd [3] of the same binder?
**A.** 5.7 µM

**Q.** What about the “stoichiometry N” value [3] of the same binder?
**A.** 2

B3: PCDH15_(1EC) (EC11 to CR), purified in complex with LHFPL5 for cryo-EM (domain or fragment, mouse (Mus musculus), UniProt Q99PJ1 27-30, looked up)
chain: QYDDHPPVFQKKFYIGGVSEDARMFASVLRVKATDRDTGNYSAMAYRLIIPPIKEGKEGFVVETYTGLIKTAMLFHNMRRSYFKFQVIATDDYGKGLSGKADVLVSVVNQLDMQVIVSNVPPTLVEKKIEDLTEILDRYVQEQIPGAKVVVESIGARRHGDAYSLEDYSKCDLTVYAIDPQTNRAIDRNELFKFLDGKLLDINKDFQPYYGEGGRILEIRTPEAVTSIKKRGESLGYTEGALLALAFIIILCCIPAILVVLVSYRQFKVRQAECTKTARIQSAMPAAKPAAPVPAAPAPPPPPPPPPPGAHLYEELGESAMH
notes: signal peptide in the construct; source: HEK293 tsa201 (suspension), BacMam co-infection with LHFPL5, purified (Strep-Tactin, TALON, thrombin, SEC in digitonin); not shown: mVenus, C-terminal, cleaved; 8xHis, C-terminal, cleaved
**Q.** Which results are given for B3?
**A.** binding result [4]: binds; stoichiometry N [1]: 2

B4: PCDH15_(4EC), purified in complex with LHFPL5 for cryo-EM (domain or fragment, mouse (Mus musculus), UniProt Q99PJ1 27-30, looked up)
chain: QYDDSPVFTNSTYTVVVEENLPAGTSFLQIEAKDVDLGANVSYRIRSPEVKHLFALHPFTGELSLLRSLDYEAFPDQEASITFLVEAFDIYGTMPPGIATVTVIVKDMNDYPPVFSKRIYKGMVAPDAVKGTPITTVYAEDADPPGMPASRVRYRVDDVQFPYPASIFDVEEDSGRVVTRVNLNEEPTTIFKLVVVAFDDGEPVMSSSATVRILVLHPGEIPRFTQEEYRPPPVSELAARGTVVGVISAAAINQSIVYSIVAGNEEDKFGINNVTGVIYVNSPLDYETRTSYVLRVQADSLEVVLANLRVPSKSNTAKVYIEIQDENDHPPVFQKKFYIGGVSEDARMFASVLRVKATDRDTGNYSAMAYRLIIPPIKEGKEGFVVETYTGLIKTAMLFHNMRRSYFKFQVIATDDYGKGLSGKADVLVSVVNQLDMQVIVSNVPPTLVEKKIEDLTEILDRYVQEQIPGAKVVVESIGARRHGDAYSLEDYSKCDLTVYAIDPQTNRAIDRNELFKFLDGKLLDINKDFQPYYGEGGRILEIRTPEAVTSIKKRGESLGYTEGALLALAFIIILCCIPAILVVLVSYRQFKVRQAECTKTARIQSAMPAAKPAAPVPAAPAPPPPPPPPPPGAHLYEELGESAMH
modifications: N-linked glycosylation (predicted sites; density at EC10 and EC11)
notes: signal peptide in the construct; the tag may have stayed on; not shown: mVenus, C-terminal, cleaved; 8xHis, C-terminal, cleaved
**Q.** Does B4 bind [5]?
**A.** binds

**Q.** Does B4 bind [6]?
**A.** binds
